Measurements from patent US20140242081A1.

Assays:
[1] = molecular target: human CEA on cells (CHO/huCEA, ASPC-1, LS1034) (human) (UniProt P06731); assay: cell-based or functional assay
[2] = molecular target: human CD3 on T cells (human) (UniProt P07766); assay: cell-based or functional assay
[3] = molecular target: human CD3 (human) (UniProt P07766); assay: method not stated; KD of the CD3 binding arm, used to calculate fractional receptor occupancy

UniProt P06731, sequence (P06731 35-702): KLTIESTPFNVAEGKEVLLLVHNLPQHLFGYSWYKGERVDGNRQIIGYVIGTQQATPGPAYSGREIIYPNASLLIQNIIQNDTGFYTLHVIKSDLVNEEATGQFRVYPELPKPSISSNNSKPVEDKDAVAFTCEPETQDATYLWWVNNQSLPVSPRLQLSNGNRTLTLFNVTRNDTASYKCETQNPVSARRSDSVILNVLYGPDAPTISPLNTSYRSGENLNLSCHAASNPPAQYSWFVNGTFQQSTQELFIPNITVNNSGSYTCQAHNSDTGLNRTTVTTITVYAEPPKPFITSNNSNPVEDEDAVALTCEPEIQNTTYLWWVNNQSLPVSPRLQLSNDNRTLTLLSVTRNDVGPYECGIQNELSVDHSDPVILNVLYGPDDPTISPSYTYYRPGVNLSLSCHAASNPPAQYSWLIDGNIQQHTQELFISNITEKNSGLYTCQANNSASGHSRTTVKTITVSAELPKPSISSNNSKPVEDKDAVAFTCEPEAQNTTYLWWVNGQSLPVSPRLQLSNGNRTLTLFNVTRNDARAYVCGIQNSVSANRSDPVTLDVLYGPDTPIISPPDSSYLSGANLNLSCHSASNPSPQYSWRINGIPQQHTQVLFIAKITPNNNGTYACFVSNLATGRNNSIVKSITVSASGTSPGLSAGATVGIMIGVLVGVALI

MEDI-565 (bispecific antibody) showed an EC20 of specific lysis of ASPC-1 cells (PBMC with CD3ε, E:T 5:1, 48 h), mean of 10 donors [1] of 0.097 ng/mL, an EC20 of specific lysis, C/P (CHO/huCEA cocultured with PBMC without CD14), mean [1] of 0.371 ng/mL and an EC50 of specific lysis of ASPC-1 cells (PBMC with CD3ε, E:T 5:1, 48 h), mean of 10 donors [1] of 2.03 ng/mL. For the same substance, the EC50 of specific lysis, A/P (ASPC-1 cocultured with PBMC without CD14), mean [1] was 0.971 ng/mL, the mean EC20 of specific lysis of ASPC-1 cells (PBMC with CD3ε, E:T 5:1, 48 h; Example 1, 11 donors) [1] was 0.05 ng/mL and the EC20 of CD25 de novo expression, C/P (PBMC without CD14 cocultured with CHO/huCEA), mean [2] was 0.217 ng/mL. The EC20 of CD25 upregulation on T cells (ASPC-1 target cells, PBMC with CD3ε, 48 h), mean of 10 donors [2] was 0.376 ng/mL, the EC20 of CD69 de novo expression, A/3 (PBMC with CD3ε cocultured with ASPC-1), mean [2] was 0.105 ng/mL and the EC20 of CD69 de novo expression, C/P (PBMC without CD14 cocultured with CHO/huCEA), mean [2] was 0.134 ng/mL. For the same substance, the EC20 of CD69 upregulation on T cells (ASPC-1 target cells, PBMC with CD3ε, 48 h), mean of 5 donors [2] was 0.441 ng/mL, the EC20 of IFNγ release (ASPC-1 target cells, PBMC with CD3ε, 48 h), mean [2] was 1.56 ng/mL and the EC20 of IL2 release (ASPC-1 target cells, PBMC with CD3ε, 48 h), mean [2] was 0.732 ng/mL. The EC20 of IL6 release (ASPC-1 target cells, PBMC with CD3ε, 48 h), mean [2] was 1.83 ng/mL, the EC20 of IL10 release (ASPC-1 target cells, PBMC with CD3ε, 48 h), mean [2] was 0.686 ng/mL and the EC20 of TNFα release (ASPC-1 target cells, PBMC with CD3ε, 48 h), mean [2] was 1.29 ng/mL. For the same substance, the EC50 of CD25 upregulation on T cells (ASPC-1 target cells, PBMC with CD3ε, 48 h), mean of 10 donors [2] was 4.65 ng/mL, the EC50 of CD69 de novo expression, A/3 (PBMC with CD3ε cocultured with ASPC-1), mean [2] was 1.26 ng/mL and the EC50 of CD69 de novo expression, C/3 (PBMC with CD3ε cocultured with CHO/huCEA), one value [2] was 1.34 ng/mL. For the same substance, the EC50 of CD69 upregulation on T cells (ASPC-1 target cells, PBMC with CD3ε, 48 h), mean of 5 donors [2] was 13.8 ng/mL, the EC50 of IFNγ release (ASPC-1 target cells, PBMC with CD3ε, 48 h), mean [2] was 3.29 ng/mL and the EC50 of IL2 release (ASPC-1 target cells, PBMC with CD3ε, 48 h), mean [2] was 2.14 ng/mL. The EC50 of IL6 release (ASPC-1 target cells, PBMC with CD3ε, 48 h), mean [2] was 4.04 ng/mL, the EC50 of IL10 release (ASPC-1 target cells, PBMC with CD3ε, 48 h), mean [2] was 3.92 ng/mL and the EC50 of TNFα release (ASPC-1 target cells, PBMC with CD3ε, 48 h), mean [2] was 6.56 ng/mL. The mean EC20 of CD25 upregulation (PBMC with CD3ε cocultured with CHO/huCEA, E:T 10:1, 72 h) [2] was 0.269 ng/mL and the Kd [3] was 307 nM.
